Data from patent US20220396632A1 (VERSEAU THERAPEUTICS, published 2022).
Numbering of substitutions follows the chain as printed. Non-standard residues stand in square brackets, D forms with d. No end group written: not given here. *: point of attachment. Biotin = O=C1N[C@H]2[C@H](CS[C@H]2CCCCC(=O)*)N1; sY = N[C@@H](Cc1ccc(OS(=O)(=O)O)cc1)C(=O)O

T1: SulfoTyr C4 peptide (not fully specified; Y4, Y7 and Y9 sulfated (SO3); C-terminal biotin)
T1 construct: also called C4 alpha chain peptide; human sulfotyrosinylated C4 peptide
T1 peptide: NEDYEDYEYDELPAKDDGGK

T2: Sulfotyr fibrinogen γ peptide (not fully specified; Y8 and Y12 sulfated (SO3); C-terminal biotin)
T2 construct: also called Fibrinogen gamma peptide; human sulfotyrosinylated fibrinogen peptide
T2 peptide: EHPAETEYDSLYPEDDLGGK

T3: Recombinant human PSGL-1(ECD)-hFc1 (R&D Systems, Cat. 3345-PS) (human, UniProt Q14242 42-305)
T3 construct: Bought; Gln42-Val295 counted on AAC50061; also called PSGL-1-Fc; PSGL-1-hFc1 chimera; not shown: human IgG1 Fc, Pro100-Lys330
T3 sequence: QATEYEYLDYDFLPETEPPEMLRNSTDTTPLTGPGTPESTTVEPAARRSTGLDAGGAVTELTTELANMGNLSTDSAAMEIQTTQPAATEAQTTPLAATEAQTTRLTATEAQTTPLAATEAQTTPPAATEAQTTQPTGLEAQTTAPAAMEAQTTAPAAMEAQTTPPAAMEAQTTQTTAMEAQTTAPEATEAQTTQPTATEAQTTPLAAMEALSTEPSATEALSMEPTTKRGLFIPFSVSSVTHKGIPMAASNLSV

T4: Human fibrinogen protein (ThermoFisher, RP-43142) (human, UniProt P02671 20-629; P02675 31-491; P02679 27-453, limits assumed, natural sulfotyrosines)
T4 construct: mature; Native dimer with 3 pairs of non-identical chains; also called gamma-fibrinogen; γ fibrinogen protein
T4 sequence (looked up) 1: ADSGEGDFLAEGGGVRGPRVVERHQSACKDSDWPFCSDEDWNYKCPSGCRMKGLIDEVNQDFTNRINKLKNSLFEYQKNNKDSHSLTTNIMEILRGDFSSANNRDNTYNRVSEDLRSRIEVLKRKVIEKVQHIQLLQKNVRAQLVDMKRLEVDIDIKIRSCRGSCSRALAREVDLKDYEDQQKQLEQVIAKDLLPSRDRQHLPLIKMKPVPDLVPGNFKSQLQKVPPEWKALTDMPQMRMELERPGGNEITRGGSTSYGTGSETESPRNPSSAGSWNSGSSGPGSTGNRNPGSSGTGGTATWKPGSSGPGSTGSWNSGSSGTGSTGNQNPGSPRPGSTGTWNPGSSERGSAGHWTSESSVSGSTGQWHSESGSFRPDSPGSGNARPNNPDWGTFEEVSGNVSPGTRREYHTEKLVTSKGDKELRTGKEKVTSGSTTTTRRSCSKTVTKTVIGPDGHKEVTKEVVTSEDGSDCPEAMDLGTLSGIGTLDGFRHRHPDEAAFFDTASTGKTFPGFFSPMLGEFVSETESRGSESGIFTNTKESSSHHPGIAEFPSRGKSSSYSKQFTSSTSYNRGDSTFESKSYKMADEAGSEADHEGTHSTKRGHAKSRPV
T4 sequence (looked up) 2: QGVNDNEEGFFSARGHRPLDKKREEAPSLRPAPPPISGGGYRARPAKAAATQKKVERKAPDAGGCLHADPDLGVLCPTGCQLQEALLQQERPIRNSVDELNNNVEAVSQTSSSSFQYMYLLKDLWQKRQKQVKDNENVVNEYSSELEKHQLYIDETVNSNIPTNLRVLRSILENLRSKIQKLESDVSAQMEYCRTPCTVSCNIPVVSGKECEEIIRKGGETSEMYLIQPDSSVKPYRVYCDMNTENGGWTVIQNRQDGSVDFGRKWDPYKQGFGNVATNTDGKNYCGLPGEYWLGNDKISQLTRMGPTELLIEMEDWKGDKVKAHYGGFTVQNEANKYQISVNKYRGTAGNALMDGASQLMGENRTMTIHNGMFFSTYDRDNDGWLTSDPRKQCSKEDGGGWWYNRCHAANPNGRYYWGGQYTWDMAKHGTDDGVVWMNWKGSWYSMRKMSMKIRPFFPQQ
T4 sequence (looked up) 3: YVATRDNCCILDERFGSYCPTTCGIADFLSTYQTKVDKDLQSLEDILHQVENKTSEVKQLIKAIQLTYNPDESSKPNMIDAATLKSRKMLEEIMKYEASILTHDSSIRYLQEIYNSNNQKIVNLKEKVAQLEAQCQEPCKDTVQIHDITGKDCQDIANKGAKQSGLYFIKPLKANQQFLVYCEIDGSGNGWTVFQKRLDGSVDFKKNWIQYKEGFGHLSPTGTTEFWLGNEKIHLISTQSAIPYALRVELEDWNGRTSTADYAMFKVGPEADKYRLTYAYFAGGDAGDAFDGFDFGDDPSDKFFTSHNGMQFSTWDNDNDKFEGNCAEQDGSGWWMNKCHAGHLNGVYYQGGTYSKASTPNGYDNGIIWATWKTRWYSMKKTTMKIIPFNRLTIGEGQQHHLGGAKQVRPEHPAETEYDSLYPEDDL

T5: SulfoCCK biotin peptide (human)
T5 construct: also called sulfotyrosine CCK peptide
T5 peptide: SHRISDRD[sY]MGWMDFGGK(Biotin)

T6: Sulfotyrosine CCR2b biotin peptide (human)
T6 construct: also called CCR2b peptide
T6 peptide: TTFFD[sY]D[sY]GAPSHGGK(Biotin)

T7: Scrambled Y42,52,63(SO3) PSGL-1(42-62) biotin peptide (sulfotyrosine at peptide positions 1, 11 and 22; C-terminal Lys-biotin)
T7 peptide: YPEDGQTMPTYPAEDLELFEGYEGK

T8: Biotin PSGL-1(42-62) peptide, unmodified (human, C-terminal Lys-biotin)
T8 construct: Residues 42-62 followed by GGGK-biotin; also called WT; wild-type
T8 peptide: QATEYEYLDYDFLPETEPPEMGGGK

T9: Biotin Y46,48,51(SO3) PSGL-1(42-62) peptide (human, sulfotyrosine at Y46, Y48 and Y51; C-terminal Lys-biotin)
T9 construct: also called fully sulfated N-terminal PSGL-1 peptide
T9 peptide: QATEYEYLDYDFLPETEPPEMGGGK

T10: Sulfotyrosine D6 biotin peptide (human)
T10 construct: also called D6 peptide
T10 peptide: ENSSFY[sY][sY]D[sY]LDEVAFGGK(Biotin)

B1: 08C10 (antibody, IgG4, V domains shown)
VH: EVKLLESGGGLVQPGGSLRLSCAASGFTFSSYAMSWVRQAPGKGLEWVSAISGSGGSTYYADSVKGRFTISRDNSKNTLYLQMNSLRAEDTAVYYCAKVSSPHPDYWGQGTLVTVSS
VL: LPVLTQPSSLSASPGASASLTCTLRSGLNVGTYRMYWYQQRPGSPPRYLLRYKSNSDKQQGSGVPSRFSGSKDASANAGILLISGLQSEDEADYYCLIWHNSAWVFGGGTKLTVL
B2: 10B03 (antibody, IgG4, V domains shown)
VH: EVKLLESGGDLVQPGGSLRLSCAASGLTFSNYAMSWVRQAPGKGLEWVSAISGSGDNTYYADSVKGRFTISRDNSKNTLYLQMNSLRADDTAVYFCAKRDSWGQGTLVTVSS
VL: QAVLTQPPSASGTPGQRVTISCSGSTSNIGSRDVYWYQHLPGTAPKLVIYRNDQRPSGVPDRFSGSKSGTSASLAISGLRSEDDADYYCAVWDNSLRGRVFGGGTKLTVL
B3: 03B03 (antibody, IgG4, V domains shown)
VH: EVQLVQSGGGLVQPGGSLRLSCAATGFTVSRNYMTWVREAPGKGLEWVAGIYKSGTTSYTESVKGRFTISRDNSKNTLYLEMSRLRAEDTAVYYCAKSTSTWGQGTQVTVSS
VL: DIVMTQSPLSLPVTLGQPASISCRASQSPGYSDGNTYLNWFQQRPGQSPRRLIYKVSNRDPGVPDRFSGSGSGTDFTLKISRVEAEDVGVYYCMQATHWPSFGQGTRLEIK
B4: 03D01 (antibody, IgG4, V domains shown)
VH: B3 VH with T60I
VL: DVVMTQSPVSLPVTLGQPASISCRSSRNLLYSNGNTYLNWFHQRPGQSPRRLIYKVSNQDSGVPDRFSGSGSGTDFTLKISRVEAEDVGVYYCMQGTHWPTTFGQGTRLEIK
B5: 01A04 (antibody, IgG4, V domains shown)
VH: EVQLVQSGAEVKKPGASVKVSCKASGYTFTSYYIHWVRQAPGQGLEWMGIIRPSGGSTSYAQKFQGRVTMTRDTSTSTVYMELSSLRSEDTAMYYCARVGVGSFDYWGQGTLVTVSS
VL: DIQMTQSPSTLSASVGDRVTITCRASQSVSNWLAWYQQKPGKAPKLLIYKASSLESGVPSRFSGSGSGTEFTLTISSLQPDDFATYYCQWFRTFGPGTKVDIK

Columns and labels:
SulfoTyr C4 peptide = molecular target: T1, SulfoTyr C4 peptide; test: ELISA, 50 nM mAb
Protocol: (§1) Recombinant PSGL-1-hFc1 chimera protein consisting of PSGL-1's extracellular domain (ECD) served as a positive control. […] Primary antibody was added (25 ul per well) in duplicate at 50 nM in assay buffer (blocking buffer containing 0.05% Tween®20) into test and control (just blocked) wells and the plate incubated for 45 min at 37° C.

[1] = molecular target: T2, Sulfotyr fibrinogen γ peptide; test: ELISA, 50 nM mAb
Protocol: as §1

[2] = molecular target: T3, Recombinant human PSGL-1(ECD)-hFc1 (R&D …); test: ELISA, 50 nM mAb
Protocol: as §1

[3] = molecular target: T11, Human complement C4 protein (Millipore Sigma, Cat. 204886) (human, UniProt P0C0L4 20-675; P0C0L4 680-1446; P0C0L4 1454-1744, limits assumed, natural sulfotyrosines); test: ELISA, 50 nM mAb
T11 construct: mature
Protocol: as §1

[4] = molecular target: T4, Human fibrinogen protein (ThermoFisher, …); test: ELISA, 50 nM mAb
Protocol: as §1

SulfoCCK biotin peptide = molecular target: T5, SulfoCCK biotin peptide; test: ELISA, 50 nM mAb
Protocol: as §1

[5] = molecular target: T6, Sulfotyrosine CCR2b biotin peptide; test: ELISA, 50 nM mAb
Protocol: as §1

[6] = molecular target: T7, Scrambled Y42,52,63(SO3) PSGL-1(42-62) …; test: ELISA, immobilized biotin peptide
Protocol: (§2) A typical ELISA was performed by coating high binding half-well plates (Corning Cat. #3690) with 3 ug/mL/25 ul per well of biotinylated N-terminal PSGL-1 peptides, which incorporated residues 42 to 62 of the protein, in PBS, pH 7.4, overnight at 4° C. The peptide was unmodified or contained sulfated tyrosine at all 3 tyrosine positions (46, 48, and 51) or at one position (tyr51) (Table 7).
(§3) PSGL-1 protein or peptide served as a positive control. […] […] […] For each antibody, duplicate values were averaged and average assay background was subtracted.

[7] = molecular target: T8, Biotin PSGL-1(42-62) peptide, unmodified; test: ELISA, immobilized biotin peptide
Protocol: as §2, §3

[8] = molecular target: T9, Biotin Y46,48,51(SO3) PSGL-1(42-62) …; test: ELISA, immobilized biotin peptide
Protocol: as §2, §3

[9] = molecular target: T12, Cynomolgus PSGL-1(ECD)-hFc1 (cynomolgus macaque); test: ELISA, 20 nM mAb on plate cyno PSGL-1(ECD)-Fc
T12 construct: also called Cyno PSGL1-Fc; Cyno PSGL-1(ECD)-Fc
Protocol: Antibody binding to plate-immobilized cyno PSGL-1(ECD) was determined either at one concentration (20 nM) or by generating full antibody binding curves (0.003-200 nM). A typical ELISA was performed by overnight coating at 4° C. with 3 ug/mL/25 ul per well of recombinant cyno PSGL-1(ECD) protein in PBS, pH 7.4, in high binding half-well plates (Corning Cat. #3690). […] Anti-PSGL-1 IgG in assay buffer (blocking buffer containing 0.05% tween 20) was added into test and control wells (20 nM/25 ul/well) and the plate incubated for 45 min at 37° C. […] The plate was incubated for 45 min at 37° C., and mAb bound to plate-immobilized target determined at A450 nm using HRP substrate (3,3′,5,5′-tetramethylbenzidine (TMB)). For each antibody, duplicate values were averaged and assay background subtracted.

[10] = molecular target: T10, Sulfotyrosine D6 biotin peptide; test: ELISA, 50 nM mAb
Protocol: as §1

T11 sequence (P0C0L4 20-675 limits assumed, form in doubt, chain 1 of 3): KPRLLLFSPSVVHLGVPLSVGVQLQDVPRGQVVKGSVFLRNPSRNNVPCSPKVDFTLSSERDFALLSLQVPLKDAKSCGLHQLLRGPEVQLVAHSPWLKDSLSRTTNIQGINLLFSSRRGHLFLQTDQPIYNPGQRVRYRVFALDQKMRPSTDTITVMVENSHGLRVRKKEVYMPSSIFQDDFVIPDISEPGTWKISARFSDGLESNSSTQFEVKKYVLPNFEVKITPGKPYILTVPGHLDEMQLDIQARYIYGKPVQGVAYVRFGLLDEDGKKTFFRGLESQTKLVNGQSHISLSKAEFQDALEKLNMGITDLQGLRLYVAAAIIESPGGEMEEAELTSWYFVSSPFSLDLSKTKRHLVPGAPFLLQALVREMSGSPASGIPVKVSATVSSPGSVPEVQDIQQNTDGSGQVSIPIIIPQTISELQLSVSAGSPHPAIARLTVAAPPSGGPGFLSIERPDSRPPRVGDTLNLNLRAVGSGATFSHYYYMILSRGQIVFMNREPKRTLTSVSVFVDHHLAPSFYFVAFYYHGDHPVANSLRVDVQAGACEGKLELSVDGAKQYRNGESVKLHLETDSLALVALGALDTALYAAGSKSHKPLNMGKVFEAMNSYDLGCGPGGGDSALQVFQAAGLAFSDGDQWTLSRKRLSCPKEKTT
T11 sequence (P0C0L4 680-1446 limits assumed, form in doubt, chain 2 of 3): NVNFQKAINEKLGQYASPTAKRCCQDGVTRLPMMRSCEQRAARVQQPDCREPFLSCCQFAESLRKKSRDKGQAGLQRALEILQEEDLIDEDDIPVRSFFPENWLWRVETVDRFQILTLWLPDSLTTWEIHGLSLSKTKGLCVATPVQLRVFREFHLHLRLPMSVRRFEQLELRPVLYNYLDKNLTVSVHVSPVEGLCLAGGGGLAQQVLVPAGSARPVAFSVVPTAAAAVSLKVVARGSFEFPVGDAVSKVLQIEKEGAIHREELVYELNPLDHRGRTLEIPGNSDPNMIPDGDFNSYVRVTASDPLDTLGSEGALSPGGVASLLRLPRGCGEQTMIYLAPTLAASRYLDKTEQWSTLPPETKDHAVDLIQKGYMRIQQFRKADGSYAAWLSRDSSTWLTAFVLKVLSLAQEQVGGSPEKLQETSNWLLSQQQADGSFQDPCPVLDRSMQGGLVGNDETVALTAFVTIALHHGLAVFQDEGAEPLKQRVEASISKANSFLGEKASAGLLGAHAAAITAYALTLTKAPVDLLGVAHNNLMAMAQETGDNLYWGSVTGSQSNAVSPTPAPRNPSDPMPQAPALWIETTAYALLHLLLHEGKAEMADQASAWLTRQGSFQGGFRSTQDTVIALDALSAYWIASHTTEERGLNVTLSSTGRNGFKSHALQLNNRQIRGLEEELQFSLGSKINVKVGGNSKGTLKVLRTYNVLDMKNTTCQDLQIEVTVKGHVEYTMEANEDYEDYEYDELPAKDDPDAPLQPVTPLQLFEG
T11 sequence (P0C0L4 1454-1744 limits assumed, form in doubt, chain 3 of 3): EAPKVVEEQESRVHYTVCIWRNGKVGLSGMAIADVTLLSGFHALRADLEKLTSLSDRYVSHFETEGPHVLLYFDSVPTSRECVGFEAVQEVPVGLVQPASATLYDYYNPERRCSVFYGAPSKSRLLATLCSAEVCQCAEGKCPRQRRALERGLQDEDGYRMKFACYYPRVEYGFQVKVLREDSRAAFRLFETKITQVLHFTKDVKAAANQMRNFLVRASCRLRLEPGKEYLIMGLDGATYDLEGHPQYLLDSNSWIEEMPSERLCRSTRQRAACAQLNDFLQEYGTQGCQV

Binder | binding normalized to PSGL-1 (SulfoTyr C4 peptide) | binding normalized to PSGL-1 [1] | A450nm [2] [A450nm] | binding normalized to PSGL-1 [3] | binding normalized to PSGL-1 [4] | binding normalized to PSGL-1 (SulfoCCK biotin peptide) | binding normalized to PSGL-1 [5] | binding result [6] | EC50 [7] [µM] | A450nm, 20 nM mAb [8] [A450nm] | EC50 [8] [µM] | A450nm [9] [A450 nm] | A450nm, 20 nM mAb [6] [A450nm] | A450nm, 20 nM mAb [7] [A450nm] | binding result [4] | binding normalized to PSGL-1 [10]
B1 | 1.14 | 1.18 | 2.3 | 1.22 | 0.46 | 1.02 | 1.27 | no binding (tested: 20 nM) | ~0.5 | 2.57 | 0.00033 | 0.31 |  |  |  | 
B2 | 1.08 | 1.18 | 2.18 | 1.16 | 0.68 | 0.56 | 0.98 |  |  | 2.68 |  | 0.68 |  |  |  | 
B3 | 1 | 1.01 |  | 0.94 | 0.27 | 0.98 | 0.89 | no binding (tested: 20 nM) |  | 2.5 |  | 0.45 | 0.04 | 2.21 |  | 
B4 | 1.13 | 1.17 |  | 1.07 | -0.2 | 0.94 | 0.94 |  |  | 2.67 |  | 0.71 |  | 2.52 | no binding (tested: 50 nM) | 
B5 | 0.24 | 0.16 |  | 0.87 | 0.8 | 0.87 | 0.08 |  |  | 2.73 |  | 1.81 |  | 2.45 |  | 0.82
